Literature values in patent US20080279771A1, “Novel Imaging Agents for Cancer” (GE HEALTHCARE LIMITED, priority 2005, published 2008).

Target: neuropilin-1 receptor (NP-1) (Homo sapiens, UniProt O14786)
Details: NP-1 on tumour cells; read-out: Kd of binding of SEM-3A to NP-1

Chain of neuropilin-1 receptor (NP-1) (O14786 22-923): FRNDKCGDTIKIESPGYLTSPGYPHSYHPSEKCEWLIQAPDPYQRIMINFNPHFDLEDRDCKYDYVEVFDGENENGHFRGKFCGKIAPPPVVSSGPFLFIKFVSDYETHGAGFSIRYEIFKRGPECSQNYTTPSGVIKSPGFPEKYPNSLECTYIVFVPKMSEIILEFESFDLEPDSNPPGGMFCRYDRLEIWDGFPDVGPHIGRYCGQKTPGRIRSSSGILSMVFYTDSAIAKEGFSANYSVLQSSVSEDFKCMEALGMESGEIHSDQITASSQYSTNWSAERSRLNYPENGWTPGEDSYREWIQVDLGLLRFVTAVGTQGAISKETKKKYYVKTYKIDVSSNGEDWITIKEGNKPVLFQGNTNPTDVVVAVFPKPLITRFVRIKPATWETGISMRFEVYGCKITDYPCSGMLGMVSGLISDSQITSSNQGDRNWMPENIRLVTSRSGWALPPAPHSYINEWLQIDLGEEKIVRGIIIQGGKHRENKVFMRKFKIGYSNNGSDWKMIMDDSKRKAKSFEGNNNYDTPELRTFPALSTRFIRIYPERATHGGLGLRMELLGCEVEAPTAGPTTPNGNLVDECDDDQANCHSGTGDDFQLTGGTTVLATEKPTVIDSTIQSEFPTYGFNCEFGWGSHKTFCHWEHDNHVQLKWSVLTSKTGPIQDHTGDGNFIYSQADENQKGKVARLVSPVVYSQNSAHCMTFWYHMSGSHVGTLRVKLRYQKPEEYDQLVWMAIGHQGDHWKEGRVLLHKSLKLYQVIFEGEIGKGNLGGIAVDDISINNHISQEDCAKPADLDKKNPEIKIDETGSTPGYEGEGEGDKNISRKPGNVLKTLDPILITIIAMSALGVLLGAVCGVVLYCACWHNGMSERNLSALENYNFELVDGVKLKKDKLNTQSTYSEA

Kd: ~0.28 nM
B1: SEM-3A: Semaphorin-3A, biological peptide that binds the neuropilin-1 receptor; human precursor form consists of 771 amino acids (protein, UniProt Q14563 21-771, looked up)
Semaphorin-3A: NYQNGKNNVPRLKLSYKEMLESNNVITFNGLANSSSYHTFLLDEERSRLYVGAKDHIFSFDLVNIKDFQKIVWPVSYTRRDECKWAGKDILKECANFIKVLKAYNQTHLYACGTGAFHPICTYIEIGHHPEDNIFKLENSHFENGRGKSPYDPKLLTASLLIDGELYSGTAADFMGRDFAIFRTLGHHHPIRTEQHDSRWLNDPKFISAHLISESDNPEDDKVYFFFRENAIDGEHSGKATHARIGQICKNDFGGHRSLVNKWTTFLKARLICSVPGPNGIDTHFDELQDVFLMNFKDPKNPVVYGVFTTSSNIFKGSAVCMYSMSDVRRVFLGPYAHRDGPNYQWVPYQGRVPYPRPGTCPSKTFGGFDSTKDLPDDVITFARSHPAMYNPVFPMNNRPIVIKTDVNYQFTQIVVDRVDAEDGQYDVMFIGTDVGTVLKVVSIPKETWYDLEEVLLEEMTVFREPTAISAMELSTKQQQLYIGSTAGVAQLPLHRCDIYGKACAECCLARDPYCAWDGSACSRYFPTAKRRTRRQDIRNGDPLTHCSDLHHDNHHGHSPEERIIYGVENSSTFLECSPKSQRALVYWQFQRRNEERKEEIRVDDHIIRTDQGLLLRSLQQKDSGNYLCHAVEHGFIQTLLKVTLEVIDTEHLEELLHKDDDGDGSKTKEMSNSMTPSQKVWYRDFMQLINHPNLNTMDEFCEQVWKRDRKQRRQRPGHTPGNSNKWKHLQENKKGRNRRTHEFERAPRSV
